{"source": "paper PMC3519819", "binders": {"B1": {"name": "DptC fused with the target protein (pTRG-DptC, pJTU3610), E2D677 1-544 (natural protein)", "chain": "MSKLVQAYDLAEYEDFINQEQFAGRPLAEYVAEVQRIYCADKRPWVIGYSGGKDSSAVITLVYLALLGLPPEMRSKDVFIVSSDTLVETPVVVDLIKKTMLQIEAGAKRNGLPITQHAVTPKTNETFWVNLLGKGYPAPTRSFRWCTERMKINPVSDFIKDKVSQFDEVIVVLGSRSSESASRAQVIAKHKIDGSRLARHTTLANAFIYTPIDTWDVEDVWKLLRGAFRYAPEDIDEWESPWGGNNRPLWTLYMDSSAQGECPLVIDESTPSCGNSRFGCWTCTVVTKDKAMESLIKNGEEWMSPLLKYRDLLAFTTDPANKDTYRNYKRRTGKVSYQYAKDGEDRSAERKHVPGPYWLKYRQQWLKDLLEIERDLNAQGHTITLITQPELHAIRQEWLKDPNEPDWHDTLPEIYREVYQQDLNWVVDDQSRFDASDADLLAQITQGFDVVPEMVMKLIELETSMEGLSRRQGIFDKLGTILKQDWGSLEEIQQQQATLQKRNDRDIHQDEVEKLEAELQTLQRRIIDAGESSVLIDEENERAH"}}, "target": "IscS fused with the bait protein (pBT-IscS, pJTU3618) (E. coli), P0A6B7", "sequence (P0A6B7 whole entry, the tested form may be a part)": "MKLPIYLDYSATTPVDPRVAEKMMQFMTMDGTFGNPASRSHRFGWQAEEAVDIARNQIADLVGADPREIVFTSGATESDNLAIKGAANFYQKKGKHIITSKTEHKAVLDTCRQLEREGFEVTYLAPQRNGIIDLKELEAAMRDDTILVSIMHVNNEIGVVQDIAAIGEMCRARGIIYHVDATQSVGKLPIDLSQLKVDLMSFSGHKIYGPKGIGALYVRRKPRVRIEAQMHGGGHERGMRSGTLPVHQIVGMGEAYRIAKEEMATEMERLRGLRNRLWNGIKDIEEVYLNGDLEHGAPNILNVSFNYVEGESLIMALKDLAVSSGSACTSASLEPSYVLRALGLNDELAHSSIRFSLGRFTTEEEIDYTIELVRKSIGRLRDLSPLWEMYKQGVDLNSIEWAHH", "test": "two-hybrid; BacterioMatch II bacterial two-hybrid; IscS on pBT (bait), Dpt proteins on pTRG (target); reporter strain E. coli XL1-Blue MRF' Kan; colonies counted on Selective Screening Medium with 5 mM 3-AT against nonselective medium, 24 h at 37°C", "conditions": "remark: other sources report otherwise", "data": [{"binder": "B1", "values": [{"measurement": "surviving cells on 3AT", "result": 2, "unit": "%"}]}]}
